Source: patent US7217694B2, “Inhibitors of IAPP fibril formation and uses thereof” (The Governing Counsel of the University of Toronto, priority 2000, dated 2007)
Entries after “also recorded” stand apart in the source; their conditions may differ.

Legend:
[1] = biological target: T1, hIAPP 1–37 (Homo sapiens, UniProt P10997); test: Circular dichroism (CD) of IAPP conformational change, random coil to β-sheet; type: biochemical; details: for effect on IAPP β-sheet formation / precipitation (CD): pH 6.5; for effect on IAPP conformation (CD): higher molar ratios / higher concentrations; for inhibition of IAPP β-sheet formation / fibril formation, overall statement (CD): molar ratio not stated; for effect on initial random structure of IAPP (CD) / conformational change of IAPP (CD): time 0; for effect on initial random structure of IAPP (CD): 1:10 or 1:20 molar ratio; for inhibitory activity from the circular dichroism results, peptides from the 8–20 region (summary): FIGS. 9A to 16B; for description of activity on IAPP conformation (CD), peptides from the 8–20 region: concentration not given; for effect on IAPP conformation (CD), peptides from the 8–20 region: 10-fold molar excess
T1 construct: Synthetic human IAPP (1–37) was purchased from BACHEM; purchased BACHEM (Torrence, Calif.); host or cells: chemical synthesis
T1 sequence (P10997 34-70): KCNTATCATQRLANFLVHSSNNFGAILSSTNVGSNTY
From the text: (§1) FIG. 1 illustrates the sequence of the amyloid-β (Aβ) peptide and its proposed structural domains. A peptide-based approach similar to that used for Aβ (Tjernberg, et al, J Biol Chem 272:12601–12605, 1997) has been used for targeting two key domains in IAPP initially ranging from the 8–20 and 20–29 sequences as shown in FIG. 2. These peptides, as has been shown for Aβ peptides, are able to bind to the full-length IAPP peptide and alter fibrillogenesis. The peptides disrupt fibrillogenesis by disrupting the folding into the amyloidogenic β-sheet conformation, disrupting protofilament interactions, and/or interfering with side chain interactions within the folded IAPP, which are necessary for aggregation and fibril formation. The peptides that have been examined (shown in FIG. 2) were small, synthetic hexapeptides that correspond to the principal sequence domains of IAPP. […] The in vitro assays included: Circular Dichroism (CD), to look at changes in folding of the amyloidogenic β-sheet; negative stain electron microscopy (EM) to examine changes in fibril morphology and relative density; and ThT fluorescence assay which provides a quantitative assessment of fibril formation.
Synthetic human IAPP (1–37) was purchased from BACHEM (Torrence, Calif.), synthetic peptides spanning the region from IAPP 8 to 20 and 19–31 (FIG. 3) were synthesized by the Peptide Synthesis Laboratory at the University of Toronto using standard FMOC (Fluoroenylmethoxycarbonyl) based solid phase peptide synthesis methodology. The peptides were purified by reverse phase HPLC using water/acetonitrile mixtures buffered with 0. 1% trifluoroacetic acid, on a POROS 20R2 column. The synthetic peptides were solubilized in […] (1 mg/ml), filtered (0.2 μm), aliquotted and lyophilized (Higham, C E., et al., FEBS Lett. 470: 55–60, 2000). Aliquots were reconstituted as required in 20 mM sodium acetate buffer pH 6.5.
CD was used to measure the peptide conformational changes associated with fibril formation. CD experiments were carried out at room temperature, and spectra (average of 5 scans) were collected using a Jasco J720 spectropolarimeter and quartz cuvettes with a path length of 1 mm. […]

[2] = biological target: T1, hIAPP 1–37; test: Negative stain electron microscopy of IAPP fibril morphology and density; type: biochemical; details: for effect on IAPP fibril morphology / density / aggregation (EM): molar ratio not stated
From the text: as §1
TEM was used for structural analysis of in vitro assembled fibrils. Aliquots (4 μl) were applied to pioloform and carbon coated grids. The samples were incubated on the grids for 3 minutes at room temperature, excess material blotted off and stained with 1% phosphotungstic acid (PTA). Excess PTA was blotted off and the sample was left to air dry. All samples were examined using a Hitachi 7000 electron microscope with an accelerating voltage of 75 kV.
In preliminary work the series of peptides were synthesized from the 20–29 domain and examined, via CD, EM and ThT fluorescence, at two molar ratios (1:10 and 1:20) in comparison to the full-length IAPP residues 1–37. The following data (FIGS. 5A to 5D, 6A to 6C and 7A to 7B) were obtained.

[3] = biological target: T2, Synthetic human IAPP (1-37) (human, not fully specified); test: cell-based or functional assay
T2 peptide: T1 sequence (P10997 34-70)

## AILSST
[1]; 1:1 molar ratio with IAPP
  hIAPP conformation by CD: no longer inhibitory
[1]; 1:10 or 1:20 molar ratio (10- or 20-fold molar excess)
  inhibition of IAPP β-sheet transition and aggregation (CD): very strong inhibitors of IAPP β-sheet transition
[1]; 5-fold molar excess
  hIAPP conformation by CD: able to maintain hIAPP as a random coil peptide
[1]; 5-fold molar excess (1:5) or 1:1 molar ratio
  inhibition of IAPP β-sheet conformational change at reduced concentrations (CD): capable of maintaining the majority of hIAPP in a random coil conformation
[1]; 48-hour incubation
  effect on IAPP β-sheet formation / precipitation (CD): able to prevent the attenuation of signal due to precipitation of IAPP
[1]
  effect on IAPP conformation (CD): prevented the conformational change to β-sheet
  inhibition of IAPP β-sheet formation / fibril formation, overall statement (CD): greatest inhibition of IAPP fibril formation
  effect on initial random structure of IAPP (CD): had no effect on the initial random structure of IAPP
[2]
  effect on IAPP fibril morphology / density / aggregation (EM): fibrils formed were less numerous; also recorded: absence of fibrillar aggregates which could act as seeds

## ANFLVH [FRA-019]
[1]
  inhibitory activity from the circular dichroism results, peptides from the 8–20 region (summary): have inhibitory activity
  description of activity on IAPP conformation (CD), peptides from the 8–20 region: maintained a random coil
[2]
  effect on IAPP fibril morphology / density / aggregation (EM): lower density of IAPP fibrils

## ATQRLA [FRA-012]
[1]
  inhibitory activity from the circular dichroism results, peptides from the 8–20 region (summary): have inhibitory activity
  effect on IAPP conformation (CD): limited inhibition
[2]
  effect on IAPP fibril morphology / density / aggregation (EM): only limited effects on the density and morphology of the fibrils

## FGAILS
[1]; 48-hour incubation
  effect on IAPP β-sheet formation / precipitation (CD): little effect on the ability of hIAPP (1–37) to form a β-sheet
[1]
  effect on initial random structure of IAPP (CD): had no effect on the initial random structure of IAPP
[2]
  effect on IAPP fibril morphology / density / aggregation (EM): had no effect on the morphology of IAPP fibrillar aggregates

## FLVHSS [FRA-018]
[1]
  inhibitory activity from the circular dichroism results, peptides from the 8–20 region (summary): have inhibitory activity
  description of activity on IAPP conformation (CD), peptides from the 8–20 region: some modest inhibition

## GAILSST
[1]
  effect on IAPP conformation (CD): prevented the conformational change to β-sheet

## ILSSTN
[1]; 48-hour incubation
  effect on IAPP β-sheet formation / precipitation (CD): little effect on the ability of hIAPP (1–37) to form a β-sheet
[1]
  effect on initial random structure of IAPP (CD): had no effect on the initial random structure of IAPP

## LANFLV [FRA-016]
[1]
  effect on IAPP conformation (CD), peptides from the 8–20 region: relatively good inhibition
  inhibitory activity from the circular dichroism results, peptides from the 8–20 region (summary): have inhibitory activity
  effect on IAPP conformation (CD): better activity
[2]; 10-fold excess
  effect on IAPP fibrils (EM): disruption of normal fibrils
[2]; 20 fold molar excess
  effect on IAPP fibrils (EM): Some fibrils were also seen

## NFGAIL
[1]
  inhibition of IAPP β-sheet formation / fibril formation, overall statement (CD): not inhibitory; also recorded: may actually enhance IAPP fibril formation
[1]; 10 fold excess
  conformational change of IAPP (CD): a conformational change at time 0
[1]; 20 fold excess
  conformational change of IAPP (CD): conformational change from random coil to β-sheet
[2]; 20 fold molar excess
  effect on IAPP fibrils (EM): appeared to enhance IAPP aggregation
[2]
  effect on IAPP fibril morphology / density / aggregation (EM): slightly enhanced fibril formation; also recorded: had no effect on the morphology of IAPP fibrillar aggregates; also recorded: immediate increase in the development of fibrils

## NFLVHS [FRA-017]
[1]
  inhibitory activity from the circular dichroism results, peptides from the 8–20 region (summary): have inhibitory activity
  description of activity on IAPP conformation (CD), peptides from the 8–20 region: limited inhibitory activity
[2]
  effect on IAPP fibril morphology / density / aggregation (EM): only limited effects on the density and morphology of the fibrils

## NNFGAI
[1]; 48-hour incubation
  effect on IAPP β-sheet formation / precipitation (CD): little effect on the ability of hIAPP (1–37) to form a β-sheet
[1]; 48-hour incubation, 10 fold molar excess
  effect on IAPP aggregation or precipitation (CD): no effect on aggregation or precipitation of hIAPP
[1]; 48-hour incubation, 20-fold molar excess
  IAPP conformation (CD): maintain IAPP in a random conformation
[1]
  inhibition of IAPP β-sheet formation / fibril formation, overall statement (CD): little, if any, inhibitory properties
  effect on initial random structure of IAPP (CD): had no effect on the initial random structure of IAPP
[2]
  effect on IAPP fibril morphology / density / aggregation (EM): had no effect on the morphology of IAPP fibrillar aggregates

## QRLANF [FRA-014]
[2]
  effect on IAPP fibril morphology / density / aggregation (EM): significantly accelerated aggregation

## RLANFL [FRA-015]
[2]
  effect on IAPP fibril morphology / density / aggregation (EM): enhanced lateral aggregation (ribbon structures); also recorded: significantly accelerated aggregation

## SSNFGA
[2]; reduced inhibitor concentrations
  inhibition of normal IAPP fibrillar aggregation (EM): effective inhibitors of normal IAPP fibrillar aggregation

## SSNNFG
[1]; 1:1 molar ratio with IAPP
  hIAPP conformation by CD: maintained hIAPP (1–37) in a random coil conformation
[1]; 48-hour incubation
  effect on IAPP β-sheet formation / precipitation (CD): capable of maintaining IAPP in a random conformation
[1]
  inhibition of IAPP β-sheet formation / fibril formation, overall statement (CD): strong inhibitors of β-sheet formation; also recorded: effective inhibitors even when used at low concentrations
  effect on initial random structure of IAPP (CD): had no effect on the initial random structure of IAPP
[2]
  effect on IAPP fibril morphology / density / aggregation (EM): typical high density of IAPP fibrils was not seen; also recorded: absence of fibrillar aggregates which could act as seeds

## TQRLAN [FRA-013]
[1]
  effect on IAPP conformation (CD), peptides from the 8–20 region: enhanced formation of the beta-sheet conformation
  effect on IAPP conformation (CD): possibility of a random coil
[2]
  effect on IAPP fibril morphology / density / aggregation (EM): significantly accelerated aggregation

## NNFGAI
[3]
  molar excess of peptide needed to keep IAPP in random conformation (CD, 48 hours): 20 fold molar excess

## GAILSS
[3]
  sedimentation assay: soluble hIAPP remaining after 24 hours, 10 fold excess of peptide: > 80%
  sedimentation assay: soluble hIAPP remaining after 48 hours, 10 fold excess of peptide: ~25%
  sedimentation assay: soluble hIAPP remaining after 72 hours, 10 fold excess of peptide: ~20%

## SNNFGA
[3]
  sedimentation assay: soluble hIAPP remaining after 24 hours, 10 fold excess of peptide: ~15%
  sedimentation assay: soluble hIAPP remaining after 48 hours, 10 fold excess of peptide: ~25%
  sedimentation assay: soluble hIAPP remaining after 72 hours, 10 fold excess of peptide: ~20%
